Data: paper PMC11728703
Several values for one entry are separate records, joined by “and”; a condition that tells them apart may be missing. Equal values may be shown once.

Target: Bacteriophage P22 small terminase subunit gp3 (S-terminase), full length (bacteriophage P22)
Assay: native MS; co-purified S:L-terminase complex (peak 2) exchanged into 150 mM ammonium acetate pH 8.0, 2 uM, nanoflow electrospray capillary; modified QTOF-2 and Exactive Plus EMR Orbitrap

Sequence of Bacteriophage P22 small terminase subunit gp3 (S-terminase), full length (bacteriophage P22) (P04893 whole entry): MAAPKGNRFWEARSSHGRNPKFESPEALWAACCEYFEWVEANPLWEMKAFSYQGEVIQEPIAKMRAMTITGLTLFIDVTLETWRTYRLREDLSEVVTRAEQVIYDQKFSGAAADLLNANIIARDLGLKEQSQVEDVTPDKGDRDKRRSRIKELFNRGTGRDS

Substance | stoichiometry N | stoichiometry N (gp2 per 1 (gp3)9) | stoichiometry N (gp2 per 2 (gp3)9) | stoichiometry N (gp2 per 3 (gp3)9)
Bacteriophage P22 small terminase subunit gp3 (S-terminase), full length (natural protein) | 9 |  |  | 
Bacteriophage P22 large terminase subunit gp2 (L-terminase), full length (enzyme) |  | 1 and 2 | 5 | 7
